Test results: patent publication US20200231671A1 (E R SQUIBB AND SONS L L C, published 2020)
Numbering of substitutions follows the chain as printed.

T1: rhesus monkey LAG-3, clone pa23-5 (cell surface, CHO) (rhesus monkey, UniProt P18627 24-525 (human entry))
T1 construct: also called CHO-rhesus LAG3
T1 chain: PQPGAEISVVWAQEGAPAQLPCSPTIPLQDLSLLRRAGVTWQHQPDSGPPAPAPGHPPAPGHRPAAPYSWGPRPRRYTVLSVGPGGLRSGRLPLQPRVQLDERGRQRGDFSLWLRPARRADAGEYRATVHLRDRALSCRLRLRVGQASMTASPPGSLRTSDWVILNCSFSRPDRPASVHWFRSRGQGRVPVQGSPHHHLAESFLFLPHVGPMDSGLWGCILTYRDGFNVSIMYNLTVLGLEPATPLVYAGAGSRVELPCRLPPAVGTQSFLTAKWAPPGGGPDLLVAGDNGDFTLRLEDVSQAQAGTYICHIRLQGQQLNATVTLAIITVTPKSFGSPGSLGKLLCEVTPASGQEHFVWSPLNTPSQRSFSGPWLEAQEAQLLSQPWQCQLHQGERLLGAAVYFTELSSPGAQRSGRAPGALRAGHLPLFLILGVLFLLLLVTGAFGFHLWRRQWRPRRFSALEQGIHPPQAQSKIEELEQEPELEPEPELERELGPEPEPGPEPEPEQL

T2: human LAG-3 (cell surface) (human, UniProt P18627 23-525)
T2 construct: whole, on cells; also called CHO-human LAG-3
T2 sequence (looked up): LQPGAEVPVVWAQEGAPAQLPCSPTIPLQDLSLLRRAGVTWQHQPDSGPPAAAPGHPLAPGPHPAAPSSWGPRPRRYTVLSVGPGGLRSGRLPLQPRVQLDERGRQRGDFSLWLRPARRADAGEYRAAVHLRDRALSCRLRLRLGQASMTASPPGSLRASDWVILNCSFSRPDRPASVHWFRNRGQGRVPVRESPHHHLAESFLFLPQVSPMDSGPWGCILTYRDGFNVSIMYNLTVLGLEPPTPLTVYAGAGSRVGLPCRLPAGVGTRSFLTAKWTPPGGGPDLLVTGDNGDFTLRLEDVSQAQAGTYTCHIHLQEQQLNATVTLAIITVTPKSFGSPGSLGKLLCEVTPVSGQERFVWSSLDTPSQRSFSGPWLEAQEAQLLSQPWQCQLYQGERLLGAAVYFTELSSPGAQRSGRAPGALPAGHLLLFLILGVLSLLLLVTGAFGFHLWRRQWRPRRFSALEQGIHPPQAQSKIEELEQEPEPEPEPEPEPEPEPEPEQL

T3: LAG-3 fusion protein comprising human LAG-3 extracellular domain fused to mouse Fc (human, UniProt P18627 23-450)
T3 construct: extracellular domain; also called hLAG-3-mIg; LAG-3-mIg; not shown: mouse Fc
T3 sequence (looked up): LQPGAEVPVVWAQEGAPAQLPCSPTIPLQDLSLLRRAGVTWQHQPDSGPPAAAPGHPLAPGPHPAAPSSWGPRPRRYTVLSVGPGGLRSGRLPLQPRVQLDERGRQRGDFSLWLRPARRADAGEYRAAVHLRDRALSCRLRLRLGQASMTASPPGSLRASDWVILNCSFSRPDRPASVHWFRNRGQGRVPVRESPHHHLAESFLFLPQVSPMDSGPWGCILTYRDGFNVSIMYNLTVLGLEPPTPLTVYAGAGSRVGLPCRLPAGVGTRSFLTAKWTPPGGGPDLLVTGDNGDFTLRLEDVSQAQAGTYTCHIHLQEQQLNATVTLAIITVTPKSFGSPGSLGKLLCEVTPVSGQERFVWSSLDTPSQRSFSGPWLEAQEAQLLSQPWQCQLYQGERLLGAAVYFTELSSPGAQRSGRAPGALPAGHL

B1: 25F7 human monoclonal antibody (antibody, IgG1, V domains shown)
VH: QVQLQQWGAGLLKPSETLSLTCAVYGGSFSDYYWNWIRQPPGKGLEWIGEINHNGNTNSNPSLKSRVTLSLDTSKNQFSLKLRSVTAADTAVYYCAFGYSDYEYNWFDPWGQGTLVTVSS
VL: EIVLTQSPATLSLSPGERATLSCRASQSISSYLAWYQQKPGQAPRLLIYDASNRATGIPARFSGSGSGTDFTLTISSLEPEDFAVYYCQQRSNWPLTFGQGTNLEIK
notes: also called 25F7-FITC (IgG1 version)
B2: 8B7 human monoclonal antibody (antibody, IgG4, V domains shown)
VH: QVQLQQWGAGLLKPSETLSLTCAVYGGSFSGYYWSWIRQPPGKGLEWIGEINHRGNTNCNPSLKSRVTISGDTSKKQFALKLNSVTAADTAVYYCARGYDILTGYYEDSWGPGTLVTVSS
VL: B1 VL with I29V, D50N, Q100G, N103K, L104V
notes: also called 8B7-FITC
B3: 25E3 human monoclonal antibody (antibody, IgG1, V domains shown)
VH: EVQLVESGGGVVRPGGSLRLSCAASGFTFDDYGMSWVRQAPGKGLEWVSGINWNGGSTYYADSVKGRFTISGDNAKNSLYLQMNSLRAEDTALYYCTTGGYWGQGTLVTVSS
VL: AIQLTQSPSSLSASVGDRVTITCRASQGIRSALAWYQQKPGKAPKLLIYDASSLESGVPSRFSGSGSGTDFTLTISSLQPEDFATYYCQQFNSYPYTFGQGTKLEIK
B4: 26H10 human monoclonal antibody (antibody, IgG1, V domains shown)
VH: QVQLVESGGGVVQPGRSLRLSCAASGFTFSSYGMHWVRQAPGKGLEWVAVIWYDGSNKYYADSVKGRFTISRDNSKNTLYLQMNSLRAEDTAVYYCAREWAVASWDYGMDVWGQGTTVTVSS
VL: not shown
notes: also called 26H10-FITC

How the values were obtained:
[1] = target: T1, rhesus monkey LAG-3, clone pa23-5 (cell …); assay: flow cytometry, CHO cells expressing rhesus LAG-3
From the text: The cDNA of clone pa23-5 was inserted into an expression construct, which was transfected into CHO-S suspension cells by nucleofection (Amaxa). Rhesus LAG-3 expression by sorted, selection drug-resistant clones was verified by FACS analysis. This clonal CHO cell line over-expressing rhesus LAG-3 was used in similar FACS assays to those described above to measure antibody cross reactivity to the monkey protein. Briefly, the 25F7, 8B7 and 26H10 monoclonal antibodies were serially diluted with cold 1×PFAE buffer (1×PBS+2% FBS, 0.02% sodium azide, 2 mM Na EDTA). For the binding reaction, 50 μl of diluted antibody solution was added to a 50 μl cell suspension containing 2×10⁵ cells and the mixture was incubated on ice for 30 minutes. The cells were processed by the same protocol described above. The analysis of antibody binding was conducted as described above.

[2] = target: T2, human LAG-3 (cell surface); assay: flow cytometry, CHO cells expressing human LAG-3
Experimental: To test the ability of the antibodies to bind to cell surface LAG-3 protein, the antibodies were incubated with a CHO cell line that had been transfected to express human LAG-3 on the cell surface. The 25F7, 26H10, 25E3, 8B7, 11F2 and 17E5 monoclonal antibodies were serially diluted with cold lx PFAE buffer (1×PBS+2% FBS, 0.02% sodium azide, 2 mM Na EDTA). For the binding reaction, 50 μl of diluted antibody solution was added to a 50 μl cell suspension containing 2×10⁵ cells and the mixture was incubated on ice for 30 minutes. The cells were then washed two times with 1×PFAE buffer. A 1:100 dilution of FITC-labeled goat anti-human kappa light chain antibody (Bethyl Laboratories, Inc., Cat. # A80-115F) was added and the mixture was incubated for 30 minutes at 4° C., followed by washing twice with cold 1×PFAE buffer. After the final wash, 150 μl of cold 1×PFAE containing 10 μg/mL propidium iodide (Roche Applied Science, Cat #1 348 639) was added to each solution and analysis of antibody binding was carried out by flow cytometry using a FACScalibur flow cytometer (BD Bioscience).

[3] = target: T3, LAG-3 fusion protein comprising human …; assay: flow cytometry, inhibition of hLAG-3-mIg binding to MHC Class II on Daudi cells
Experimental: To test the ability of the anti-LAG-3 antibodies to inhibit binding of LAG-3 to MHC Class II molecules, an in vitro binding assay was performed in which a LAG-3 fusion protein, comprising human LAG-3 extracellar domain fused to mouse Fc (hLAG-3-mIg), was reacted with Daudi cells, which express human MHC Class II molecules.
This mixture was incubated for 20 minutes at room temperature prior to adding to 2×10^{5 1}×PFAE-washed Daudi cells. The mixture was applied to Daudi cells and incubated at 4° C. for 30 minutes. The cells were pelleted (three minutes, 400×g), washed once with 1×PFAE buffer and re-pelleted, and binding of hLAG-3-mIg to the Daudi cells was detected using a recombinant PE-labeled anti-mIgG Fcγ secondary reagent. Analysis of LAG-3-mIg binding was carried out with the FACScalibur flow cytometer (BD Bioscience).

Binder	EC50 [1] [nM]	EC50 [2] [nM]	fold lower EC50 than 25E3 [2] [fold]	IC50 [3] [nM]
B1	22.7	0.45 to 2.52	~20	0.12 to 0.92
B2	10	1.93 to 4.44	–	0.19 to 0.95
B3	–	14.9 to 25.4	–	0.8 to 6.78
B4	4.68	1.81 to 3.64	–	0.1
